# Test results from patent US20150004189A1 (published 2015).
# Target: HLA-DQ molecule DQB1*0502 (human)
# Test: inhibition of radiolabeled peptide binding to purified HLA-DQ
row,IC50 [µM],Binder
1,50,KALWIIFSQNMNIKL [Cup a 1 (66-80) peptide KALWIIFSQNMNIKL]
2,5.83,IVYIKPAKNIYSFNE [Bet v 6 (211-225) peptide IVYIKPAKNIYSFNE]
3,2.02,DIYNYMEPYVSKVDP [Dac g 4 (1-15) peptide DIYNYMEPYVSKVDP]

# Target: HLA-DQ molecule DQB1*0202 (human)
# Test: as above
row,IC50 [nM],Binder
1,194,KAFVLDSDNLIPKVV [Que a 1 (21-35) peptide KAFVLDSDNLIPKVV]

# Target: HLA-DQ molecule DQB1*0602 (human)
# Test: as above
row,IC50 [nM],Binder
1,19,IVYIKPAKNIYSFNE [Bet v 6 (211-225) peptide IVYIKPAKNIYSFNE]
2,262,IFSQNMNIKLQMPLY [Cup a 1 (71-85) peptide IFSQNMNIKLQMPLY]
3,258,NLALSIKYNKEGDSM [Dac g 2 (16-30) peptide NLALSIKYNKEGDSM]
4,1860,IIFSQNMNIKLKMPL [Cup s 1 (91-105) peptide IIFSQNMNIKLKMPL]

# Target: HLA-DQ molecule DQB1*0503 (human)
# Test: as above
row,IC50 [µM],Binder
1,29,KALWIIFSQNMNIKL [Cup a 1 (66-80) peptide KALWIIFSQNMNIKL]
2,4.9,IFSQNMNIKLQMPLY [Cup a 1 (71-85) peptide IFSQNMNIKLQMPLY]

# The next lines start with the binder.
row,Binder,IC50 [µM]
1,KAFVLDSDNLIPKVV [Que a 1 (21-35) peptide KAFVLDSDNLIPKVV],2.64
2,IVYIKPAKNIYSFNE [Bet v 6 (211-225) peptide IVYIKPAKNIYSFNE],0.65
3,NLALSIKYNKEGDSM [Dac g 2 (16-30) peptide NLALSIKYNKEGDSM],8.96
4,ASVIPPARLFKAFVL [Que a 1 (11-25) peptide ASVIPPARLFKAFVL],1.95
5,IIFSQNMNIKLKMPL [Cup s 1 (91-105) peptide IIFSQNMNIKLKMPL],36

# Target: HLA-DP molecule DPB1*2001 (human)
# Test: inhibition of radiolabeled peptide binding to purified HLA-DP
row,IC50 [µM],Binder
1,13.2,"NVFDEVIPTAFTVGK [Lol p 3 peptide, position 76, NVFDEVIPTAFTVGK (Peptide ID 3324.1141)]"
2,24,"SDAKTLVLNIKYTRP [Lol p 3 peptide, position 11, SDAKTLVLNIKYTRP (Peptide ID 3324.1142)]"
3,2.18,"QKLMEDINVGFKAAV [Poa p 5 peptide, position 51, QKLMEDINVGFKAAV (Peptide ID 3324.1580)]"

# Target: HLA-DQ molecule DQB1*0202 (human)
# Test: inhibition of radiolabeled peptide binding to purified HLA
row,IC50 [µM],Binder
1,6.2,IEFRFYKEITNVFRG [Der p 4 peptide 3324.0976 (position 251)]
2,8.14,YVGHDEFDAFVAYHI [Der p 4 peptide 3324.0975 (position 476)]
3,11.2,PSVIPAARLFKAFIL [Aln g 1 peptide 3324.0004 (position 11)]
4,12.5,RTLNKIVYIKPAKNI [Bet v 6 peptide 3324.0387 (position 206)]
5,7.39,SRGNRAFIAINLQKN [Der p 4 peptide 3324.0974 (position 416)]
6,0.871,SGVAATESAYLAYRN [Der p 1 peptide 3324.0829 (position 136)]

# The remaining lines, values behind:
row,Binder,IC50 [µM]
1,FDAFVAYHIGARIVS [Der p 4 peptide 3324.0971 (position 482)],4.75
2,YQIAFSRGNRAFIAI [Der p 4 peptide 3324.0980 (position 411)],8.72
3,AFMLAWNYGVPRVMS [Der p 4 peptide 3324.0977 (position 321)],8.36
4,REALAQTHSAIAVII [Der p 1 peptide 3324.0840 (position 226)],0.629
5,GGSILKISNKFHTKG [Aln g 1 peptide 3324.0007 (position 111)],50
6,LEKISNEIKIVATPD [Bet v 1 peptide 3324.0353 (position 96)],8.67

# Target: HLA-DQ molecule DQB1*0602 (human)
# Test: as above
row,IC50 [nM],Binder
1,318,IEFRFYKEITNVFRG [Der p 4 peptide 3324.0976 (position 251)]
2,58,RTLNKIVYIKPAKNI [Bet v 6 peptide 3324.0387 (position 206)]
3,98,SRGNRAFIAINLQKN [Der p 4 peptide 3324.0974 (position 416)]

# More lines, now with the values behind:
row,Binder,IC50 [nM]
1,FDAFVAYHIGARIVS [Der p 4 peptide 3324.0971 (position 482)],54
2,RGIEYIQHNGVVQES [Der p 1 peptide 3324.0831 (position 176)],859
3,AFMLAWNYGVPRVMS [Der p 4 peptide 3324.0977 (position 321)],762
4,IVLNHMTGAQSGKGT [Der p 4 peptide 3324.0987 (position 96)],65
5,LEKISNEIKIVATPD [Bet v 1 peptide 3324.0353 (position 96)],19

# Target: HLA-DQ molecule DQB1*0503 (human)
# Test: as above
row,IC50 [nM],Binder
1,4370,IEFRFYKEITNVFRG [Der p 4 peptide 3324.0976 (position 251)]
2,1450,PSVIPAARLFKAFIL [Aln g 1 peptide 3324.0004 (position 11)]
3,3460,RTLNKIVYIKPAKNI [Bet v 6 peptide 3324.0387 (position 206)]
4,84,SRGNRAFIAINLQKN [Der p 4 peptide 3324.0974 (position 416)]

# Continued, binder first:
row,Binder,IC50 [nM]
1,FDAFVAYHIGARIVS [Der p 4 peptide 3324.0971 (position 482)],1080
2,YQIAFSRGNRAFIAI [Der p 4 peptide 3324.0980 (position 411)],1410
3,AFMLAWNYGVPRVMS [Der p 4 peptide 3324.0977 (position 321)],339
4,REALAQTHSAIAVII [Der p 1 peptide 3324.0840 (position 226)],32100
5,LEKISNEIKIVATPD [Bet v 1 peptide 3324.0353 (position 96)],8890

# Target: HLA-DQ molecule DQB1*0502 (human)
# Test: as above
row,IC50 [µM],Binder
1,5.52,IEFRFYKEITNVFRG [Der p 4 peptide 3324.0976 (position 251)]
2,5.04,YVGHDEFDAFVAYHI [Der p 4 peptide 3324.0975 (position 476)]
3,0.546,SRGNRAFIAINLQKN [Der p 4 peptide 3324.0974 (position 416)]

# The next lines start with the binder.
row,Binder,IC50 [µM]
1,AFMLAWNYGVPRVMS [Der p 4 peptide 3324.0977 (position 321)],0.992
2,LEKISNEIKIVATPD [Bet v 1 peptide 3324.0353 (position 96)],5.09
